The source of these data is US20220380473A1, “ANTI-GAL3 ANTIBODIES AND USES THEREOF” (TrueBinding, Inc., priority 2019, published 2022).

The chains are these.
B1: 20D11.2C6: murine anti-Gal3 antibody (antibody, V domains shown)
VH: EVQLQQSGPELVKPGASVKISCKASGYTFTDFYINWVKQSHGKSLEWIGDINPKNGGINYNPKFKIKATLTVDKSSSTSYMDLRGLTSEDSAVYYCTSGYGFPYWGQGTLVTVSA
VL: DIQMNQSPSSLSASLGDTITITCRASQNIYIWLSWYQQKPGNIPKLLIYKASNLHTGVPSRFSGSGSGTDFTLTISTLQPEDIATYFCLQGQSYPLTFGAGTKLEMK
B2: 19B5.2E6: murine anti-Gal3 antibody (antibody, V domains shown)
VH: QIQLVQSGPELKKPGETVKISCKASGYTFTTYAMSWVKQAPGKGLKWMGWINTYSGVPTYADDLKGRFAFSLETSASTAYLQINNLKNEDTATYFCARGPYAMDYWGQGTSVTVSS
VL: DIQMTQTTSSLSASLGDRVTISCSASQGINNYLNWYQQKPDGTVKLLIYYASSLHSGVPSRFSGSGSGTDYSLTISNLEPEDIATYYCQQYSQVPYTFGSGTKLEIK
B3: 23H9.2E4: murine anti-Gal3 antibody (antibody, V domains shown)
VH: B2 VH
VL: B2 VL
B4: 4A11.2B5: murine anti-Gal3 antibody, origin of IMT006-1 and IMT006-5 (antibody, V domains shown)
VH: QVQLQQSGPELVKPGASVKISCKASGYSFTNYYIHWVKQRPGQGLEWIGWIYPGSGNTNYNEKFKGKATLTADTSSSTTNMQLSSLTSEDSAVYYCSTAPGGFDVWGSGTTVTVSS
VL: DIVMTQAAFSNPVTLGTSASISCRSSKSLLHSDGITYLYWYLQRPGQSPQLLIYRMSNLASGVPDRFSGSGSGTDFTLRISRVEAEDVGVYYCAQMLEFPLTFGAGTKLELK
B5: 846.1F5: murine anti-Gal3 antibody (antibody, V domains shown)
VH: QIQLVQSGPELKKPGETVKISCKASGYTFTNYGMNWVKQAPGKGLKWMGWINTYTGEPSYADDFKGRFAFSLETSASTAYLQINNLKNEDMATYFCARWGGYDGDYYAMDYWGQGTSVTVSS
VL: NIMMTQSPSSLAVSAGEKVTMSCKSSQSVLYSSNQKNYLAWYQQKPGQSPKLLIYWASTRESGVPDRFTGSGSGTDFTLTISSVQPEDLAVYYCHQYLSSLTFGAGTKLELK
B6: 15F10.2D6: murine anti-Gal3 antibody (antibody, V domains shown)
VH: EVQLVESGGGLVKPGGSLKLSCAASGFAFSSYAMSWVRQTPEKRLEWVATISDGGVYTYYTDHVKGRFTISRDNAEDNLYLQMSHLKSEDTAMYYCVRDGGYWGQGTTLTVSS
VL: DVLMTQTPLSLPVSLGDQASISCRSSQSIVHNNGNTYLEWYLQKPGQSPKLLIYKVSNRFSGVPDRFSGSGSGTDFTLKISRVEAEDLGVYYCFQGSHVPLTFGGGTKLELK

Entries after “also recorded” stand apart in the source; their conditions may differ.

Galectin-3, sequence (P17931 whole entry): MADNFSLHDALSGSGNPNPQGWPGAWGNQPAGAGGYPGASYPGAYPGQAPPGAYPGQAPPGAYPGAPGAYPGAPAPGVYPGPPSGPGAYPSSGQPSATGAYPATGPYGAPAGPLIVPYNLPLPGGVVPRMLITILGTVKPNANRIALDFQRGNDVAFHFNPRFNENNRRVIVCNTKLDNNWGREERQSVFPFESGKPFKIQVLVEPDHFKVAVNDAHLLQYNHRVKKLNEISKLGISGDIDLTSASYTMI

The target in one experiment is Galectin-3 (Homo sapiens, UniProt P17931). Put plainly: SPR (BiacoreT200) binding affinity. The settings on record: 25° C., read-out: hGal-3 KD. The protocol:
GAL3-binding antibodies were evaluated for their binding affinity by SPR. Kinetics experiments were performed on BiacoreT200 at 25° C. in high performance mode. Ligand proteins, purified antibodies were captured onto a CM5 chip coupled with anti-human Fc or anti-mouse Fc antibody, three antibodies at a time onto flow cell #2, 3, and 4, respectively, while flow cell #1 was used as reference. The analyte Galectin-3 in HBS-EP buffer was injected over all four flow cells at concentrations of 100, 50, 25, 12.5, 6.25, 3.125 and 0 nM at a flow rate of 30 μL/min. The complex was allowed to associate and dissociate for 240 and 300 seconds, respectively. The surfaces were regenerated with a 30 second injection of 10 mM Glycine pH 1.7 (flow rate 30 μL/min). The data were fit to a simple 1:1 interaction model using the global data analysis option available within BiacoreT200 Evaluation software V2.0. The affinity of Gal3 monoclonal antibodies was confirmed to be […] 30 nM for all antibodies studied (Table 24.1). Antibodies with affinity less than 2E-7 were selected for further characterization.
For B1, the Kd (usually the free concentration of one partner at which half of the binding sites on the other are occupied at equilibrium, for simple one-to-one binding) is 27.8 nM.
Still for that read-out and setting: next, B2: less than 1 nM; B3: 4.26 nM; B4: 5.22 nM.
Same read-out and setting: next, B5: 2.73 nM; B6: 2.06 nM.

For the next experiment, the target named is T1, association of GAL3 and TIM3 (Homo sapiens, UniProt P17931).
T1 construct: full-length human Galectin-3 protein (Acro Biosystems, GA3-H5129); linker-spaced 6-histidine tag; purchased Acro Biosystems GA3-H5129 (Gal3); TM3-H5229 (TIM-3)
T1 sequence (P17931 2-250 limits assumed): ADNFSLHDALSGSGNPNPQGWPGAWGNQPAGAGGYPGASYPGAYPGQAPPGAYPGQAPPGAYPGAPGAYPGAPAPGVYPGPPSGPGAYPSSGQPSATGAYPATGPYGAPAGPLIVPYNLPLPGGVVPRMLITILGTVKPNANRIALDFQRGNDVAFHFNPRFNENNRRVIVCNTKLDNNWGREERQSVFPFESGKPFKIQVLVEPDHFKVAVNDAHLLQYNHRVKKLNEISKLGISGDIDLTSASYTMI
Put plainly: GAL3-TIM3 blocking ELISA (Examples 24, 27). The settings on record: 3 ug/mL antibody. The format is binding. The procedure:
Positively scoring wells were evaluated for the ability to block association of GAL3 and TIM3. To identify GAL3-targeted antibodies with the ability to block the interaction of GAL3 and TIM3, purified GAL3 and TIM3 proteins were incubated in the presence of GAL3-immunization hybridoma supernatants described above, or without antibody, and protein interaction was evaluated by ELISA. Human Galectin-3 protein (Acro Biosystems, GA3-H5129) was diluted in PBS (Corning, 21-030-CM) to a concentration of 3 μg/ml and added to the wells of a 96-well ELISA plate (Thermo Fisher, 44-2404-21). After incubating the plate at 4° C. overnight, the plate was washed three times with PBST (PBS with 0.05% Tween 20 [VWR, 0777]). The plate was then blocked for an hour with 2% BSA (EMD Millipore, 126609) in PBST at room temperature with gentle rocking. Thereafter, the 2% BSA in PBST was discarded and antibody or inhibitor (3-fold dilutions beginning at 20 μg/ml, 60 μg/ml, or 180 μM) in 2% BSA in PBST was added to the wells. Afterwards, 2 μg/ml of human TIM3 (Aero Biosystems, TM3-H5229) in 2% BSA in PBST was added to the antibody or inhibitor in the wells in a 1:1 ratio. The plate was incubated for an hour at room temperature with gentle rocking. Thereafter, the plate was washed three times with PBST, and 0.3 μg/ml of human TIM3 Biotinylated Antibody (R&D Systems, BAF2365) in 2% BSA in PBST was added to the wells. The plate was incubated for an hour with gentle rocking and then washed three times with PBST. Avidin-HRP (1:2000) was then added to the wells. The plate was incubated at room temperature for an hour with gentle rocking and then washed three times with PBST. TMB substrate (Thermo Scientific, 34029) was then added to each well. The reaction was stopped with 1M HCl (JT Baker, 5620-02) and read using a plate reader (Molecular Devices) at absorbance of 450 nm.
A general note: In an ELISA, binding on a coated surface is turned into a signal by an enzyme label.
As for B1, the “GAL3-TIM3 Blocking @ 3 ug/mL” value came out at 40%.
Still for that read-out and setting: next, B2: 61%; B3: 80%; B4: 48%.
Consider B5, for which the “GAL3-TIM3 Blocking @ 3 ug/mL” value is given as 90%.
Consider B6, for which the “GAL3-TIM3 Blocking @ 3 ug/mL” value came out at 19%.

In a further experiment the test system is hGal3 peptide. Put plainly: Gal3 peptide library ELISA (Example 25). The format is binding, human. The following applies: hGal3 peptide No. bound. The procedure: To identify the epitopes to which Gal3 antibodies with and without Gal3-TIM3 blocking activity bound, a library of 20 amino acid peptides representing portions of Gal3, summarized in Table 24.1, was produced and the ability to bind Gal3 antibodies was evaluated by ELISA.
At least 2 μg/ml of hGal3 peptide in 50 μl of PBS or 0.1 μg/ml of full-length human Gal3 protein (GenScript) and human Galectin-3 protein (Acro Biosystems, GA3-H5129) were diluted in PBS (Corning, 21-030-CM) to concentrations of at least 2 μg/ml or 0.1 μg/ml, respectively, and added to the wells of a 96-well ELISA plate (Thermo Fisher, 44-2404-21). After incubating the plate at 4° C. overnight, the plate was washed three times with PBST (PBS with 0.05% Tween 20 [VWR, 0777]). The plate was then blocked for an hour with 2% BSA (EMD Millipore, 126609) in PBST at room temperature with gentle rocking. Thereafter, the 2% BSA in PBST was discarded and human Galectin-3 hybridoma supernatants or antibodies were diluted in 2% BSA in PBST to concentrations of at least 0.1 μg/ml and added to the wells. The plate was incubated for an hour at room temperature with gentle rocking and then washed three times with PBST. Afterwards, Goat Anti-Mouse IgG-HRP (Jackson ImmunoResearch, 115-036-1461) or Goat Anti-Rat IgG HRP (abcam, ab205720) diluted in 2% BSA in PBST (1:4000) were added to the wells. The plate was incubated for 30 minutes to 1 hour at room temperature with gentle rocking and then washed three times with PB ST. TMB substrate (Thermo Scientific, 34029) was then added to each well. The reaction was stopped with 1M HCl (JT Baker, 5620-02) and read using a plate reader (Molecular Devices) at absorbance of 450 nm.
B2: the “Epitope Mapping” value is recorded as 1,7.
As for B3, the “Epitope Mapping” value is 1,7.
On the same count and under the same terms, the figure for B4 is 6.
On the same count and under the same terms, the figure for B5 is 6; for B6 it is 2,7.

The same experiment, now with this note: peptide array ELISA.
Consider B1, for which the Gal3 peptide bound entry is “peptide 1; also recorded: peptide 7”.
On to B2, for which the Gal3 peptide bound entry is reported as “peptide 1; also recorded: peptide 7”.
As to B3, the Gal3 peptide bound result was “peptide 1; also recorded: peptide 7”.
Same read-out and setting: the entry for B4 is “peptide 6”; for B5 it is “peptide 6”.
For B6, the Gal3 peptide bound result is “peptide 7”.

In the next experiment the target is human Gal3-His (Homo sapiens, UniProt P17931). The experiment can be described thus: Antibody binning by biolayer interferometry (Gator). The format is binding. The following applies: antibody competition. The procedure: To determine whether Gal3-binding antibodies with Gal3-TIM3 blocking activity bind to the same or overlapping regions of the Gal3 molecule, antibody binning assays were performed to assess the ability of antibodies to simultaneously bind Gal3. Amine-reactive probes were loaded onto a Gator biosensor (Probe Life, Palo Alto, Calif.), equilibrated in dH20 for 60 seconds, dipped into 100 μl EDC 0.2M/NHS 0.05M activation buffer for 30 seconds, then dipped into a solution of […] human Gal3-His in 10 mM NaOAc buffer, pH 5 until binding was saturated, and quenched in 1 M ethanolamine pH 8.5 for 300 seconds. Following Gal3-His loading, tips were dipped in 20 μg/mL saturating antibody, then successively dipped into 5 μg/mL competing antibody.
human Gal3-His, sequence (P17931 whole entry): as the sequence (P17931 whole entry) above
A general note: In BLI a coated tip is dipped into the sample, and binding shifts an interference pattern.
Molecule B1 had a Bin of 5.
Molecule B2 displayed a Bin of 4.
The molecule B3 had a Bin of 4.
The same measure, in the same setting: next, B4: 3.
As for B5, the Bin is listed as 3.
The same measure, in the same setting: next, B6: 8.
